Tests used:
Assay in all cases: holdup assay
Design in all cases: key: below the threshold = too weak to quantify, mostly under pKd 3.1 to 4
Conditions in all cases: plain residues with an end cap or a label only (N-terminal biotin on a linker: ado-ado)
GIPC2, Q8TF65 = target: GIPC2, Q8TF65
Inadl_9, Q8NI35 = target: Inadl_9, Q8NI35
PARD3B_1, Q8TEW8 = target: T1, PARD3B_1, Q8TEW8
T1 sequence (Q8TEW8 196-299, limits assumed, looked up): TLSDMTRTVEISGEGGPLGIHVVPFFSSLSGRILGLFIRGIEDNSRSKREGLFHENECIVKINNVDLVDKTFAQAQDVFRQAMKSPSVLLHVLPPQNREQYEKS

CARD11, Q9BXL7 = target: T2, CARD11, Q9BXL7
T2 sequence (Q9BXL7 662-765, limits assumed, looked up): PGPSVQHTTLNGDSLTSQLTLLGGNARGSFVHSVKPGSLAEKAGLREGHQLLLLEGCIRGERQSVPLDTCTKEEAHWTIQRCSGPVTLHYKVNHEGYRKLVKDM

GRASP, Q7Z6J2 = target: GRASP, Q7Z6J2
NHERF2_2, Q15599 = target: NHERF2_2, Q15599
MAGI2_6, Q86UL8 = target: MAGI2_6, Q86UL8
IL16_1, Q14005 = target: IL16_1, Q14005
DFNB31_1, Q9P202 = target: T3, DFNB31_1, Q9P202
T3 sequence (Q9P202 135-233, limits assumed, looked up): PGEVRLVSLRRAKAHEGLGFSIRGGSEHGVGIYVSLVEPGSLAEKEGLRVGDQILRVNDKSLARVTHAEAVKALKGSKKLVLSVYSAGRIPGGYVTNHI

GRID2IP_2, A4D2P6 = target: GRID2IP_2, A4D2P6
SHANK1, Q9Y566 = target: T4, SHANK1, Q9Y566
T4 sequence (Q9Y566 658-767, limits assumed, looked up): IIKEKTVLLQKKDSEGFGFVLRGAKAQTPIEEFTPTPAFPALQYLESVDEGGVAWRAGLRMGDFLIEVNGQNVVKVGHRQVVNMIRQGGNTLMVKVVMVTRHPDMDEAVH

DFNB31_2, Q9P202 = target: T5, DFNB31_2, Q9P202
T5 sequence (Q9P202 274-371, limits assumed, looked up): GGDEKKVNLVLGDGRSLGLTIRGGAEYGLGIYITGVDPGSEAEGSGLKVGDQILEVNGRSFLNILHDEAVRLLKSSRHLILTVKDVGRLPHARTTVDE

NHERF4_1, Q86UT5-2 = target: NHERF4_1, Q86UT5-2
MAGI1_1, Q96QZ7 = target: MAGI1_1, Q96QZ7
LNX1_1, Q8TBB1 = target: LNX1_1, Q8TBB1
SNTG2, Q9NY99 = target: T6, SNTG2, Q9NY99
T6 sequence (Q9NY99 68-166, limits assumed, looked up): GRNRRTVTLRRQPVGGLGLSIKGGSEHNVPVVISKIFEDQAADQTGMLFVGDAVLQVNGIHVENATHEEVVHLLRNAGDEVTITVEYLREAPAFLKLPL

SIPA1L2, Q9P2F8 = target: T7, SIPA1L2, Q9P2F8
T7 sequence (Q9P2F8 945-1036, limits assumed, looked up): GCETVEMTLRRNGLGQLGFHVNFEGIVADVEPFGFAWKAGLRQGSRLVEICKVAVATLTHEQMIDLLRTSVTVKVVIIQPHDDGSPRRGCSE

LDB3, O75112 = target: LDB3, O75112
PTPN13_1, Q12923 = target: T8, PTPN13_1, Q12923
T8 sequence (Q12923 1088-1188, limits assumed, looked up): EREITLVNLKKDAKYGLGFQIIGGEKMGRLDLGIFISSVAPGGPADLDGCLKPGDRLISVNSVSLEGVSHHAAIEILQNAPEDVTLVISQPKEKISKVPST

GRIP1_4, Q9Y3R0 = target: T9, GRIP1_4, Q9Y3R0
T9 sequence (Q9Y3R0 467-571, limits assumed, looked up): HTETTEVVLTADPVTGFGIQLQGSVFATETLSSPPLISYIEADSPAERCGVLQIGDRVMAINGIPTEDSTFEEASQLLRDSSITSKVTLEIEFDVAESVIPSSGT

MPP2, Q14168 = target: T10, MPP2, Q14168
T10 sequence (Q14168 180-250, limits assumed, looked up): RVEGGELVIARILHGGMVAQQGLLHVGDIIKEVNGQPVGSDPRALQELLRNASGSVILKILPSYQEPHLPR

DLG4_1, P78352 = target: DLG4_1, P78352
SCRIB_3, Q14160 = target: SCRIB_3, Q14160
PDZD7_3, Q9H5P4 = target: T11, PDZD7_3, Q9H5P4
T11 sequence (Q9H5P4 857-944, limits assumed, looked up): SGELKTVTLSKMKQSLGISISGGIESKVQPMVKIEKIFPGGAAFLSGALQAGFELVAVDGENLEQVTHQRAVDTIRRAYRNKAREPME

LNX2_2, Q8N448 = target: T12, LNX2_2, Q8N448
T12 sequence (Q8N448 334-432, limits assumed, looked up): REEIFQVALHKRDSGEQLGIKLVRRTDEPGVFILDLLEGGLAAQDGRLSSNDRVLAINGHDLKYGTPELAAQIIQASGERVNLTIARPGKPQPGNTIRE

Sequence of SCRIB_3, Q14160 (Q14160 999-1103): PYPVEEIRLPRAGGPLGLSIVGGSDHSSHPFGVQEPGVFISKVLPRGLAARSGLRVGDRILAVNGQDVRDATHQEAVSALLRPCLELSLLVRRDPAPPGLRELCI
Sequence of GRID2IP_2, A4D2P6 (A4D2P6 272-370): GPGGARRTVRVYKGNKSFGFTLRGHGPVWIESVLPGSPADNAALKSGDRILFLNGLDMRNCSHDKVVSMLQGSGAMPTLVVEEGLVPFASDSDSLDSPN
Sequence of GRASP, Q7Z6J2 (Q7Z6J2 96-193): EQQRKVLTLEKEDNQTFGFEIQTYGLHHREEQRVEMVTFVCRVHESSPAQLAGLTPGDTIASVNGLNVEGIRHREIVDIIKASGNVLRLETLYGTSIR
Sequence of LDB3, O75112 (O75112 1-94): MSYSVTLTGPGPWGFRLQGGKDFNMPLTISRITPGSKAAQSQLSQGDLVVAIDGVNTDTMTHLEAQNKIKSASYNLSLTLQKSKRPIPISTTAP
Sequence of LNX1_1, Q8TBB1 (Q8TBB1 261-371): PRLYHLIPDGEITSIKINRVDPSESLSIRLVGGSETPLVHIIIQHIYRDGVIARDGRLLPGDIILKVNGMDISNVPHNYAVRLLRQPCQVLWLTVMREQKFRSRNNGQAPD
Sequence of MAGI1_1, Q96QZ7 (Q96QZ7 1-106): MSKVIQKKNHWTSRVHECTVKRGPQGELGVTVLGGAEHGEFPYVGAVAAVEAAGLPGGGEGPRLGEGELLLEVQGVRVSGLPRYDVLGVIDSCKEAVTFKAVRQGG
Sequence of GIPC2, Q8TF65 (Q8TF65 112-203): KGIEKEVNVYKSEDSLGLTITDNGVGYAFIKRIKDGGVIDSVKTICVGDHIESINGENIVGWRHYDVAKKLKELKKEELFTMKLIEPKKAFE
Sequence of IL16_1, Q14005 (Q14005 210-306): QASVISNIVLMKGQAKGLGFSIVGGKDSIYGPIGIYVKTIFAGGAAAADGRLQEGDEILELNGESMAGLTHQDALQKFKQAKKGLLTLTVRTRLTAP
Sequence of NHERF2_2, Q15599 (Q15599 142-238): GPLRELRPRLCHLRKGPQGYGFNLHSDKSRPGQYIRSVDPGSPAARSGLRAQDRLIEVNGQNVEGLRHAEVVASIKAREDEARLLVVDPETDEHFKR
Sequence of DLG4_1, P78352 (P78352 62-152): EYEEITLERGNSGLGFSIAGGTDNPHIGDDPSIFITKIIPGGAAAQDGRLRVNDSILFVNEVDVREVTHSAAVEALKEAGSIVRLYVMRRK
Sequence of NHERF4_1, Q86UT5-2 (Q86UT5 other isoform, or with tags, fused parts or gaps): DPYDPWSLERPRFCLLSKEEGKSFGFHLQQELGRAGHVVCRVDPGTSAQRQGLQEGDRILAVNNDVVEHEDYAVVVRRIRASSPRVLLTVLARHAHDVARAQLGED
Sequence of Inadl_9, Q8NI35 (Q8NI35 1530-1615): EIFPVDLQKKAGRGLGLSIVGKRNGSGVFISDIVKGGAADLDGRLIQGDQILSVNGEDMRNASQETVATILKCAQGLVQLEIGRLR
Sequence of MAGI2_6, Q86UL8 (Q86UL8 1141-1229): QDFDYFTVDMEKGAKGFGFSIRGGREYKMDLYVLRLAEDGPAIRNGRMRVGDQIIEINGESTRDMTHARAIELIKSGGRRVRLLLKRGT

For TKDKVQETQI [LRRC4, Q9HBW1], the pKd (GIPC2, Q8TF65) was 3.68, the pKd (Inadl_9, Q8NI35) was “below the threshold” and the pKd (PARD3B_1, Q8TEW8) was 3.76. For the same binder, the pKd (CARD11, Q9BXL7) was “below the threshold”, the pKd (GRASP, Q7Z6J2) was “below the threshold” and the pKd (NHERF2_2, Q15599) was 4.11. The pKd (MAGI2_6, Q86UL8) was 3.97, the pKd (IL16_1, Q14005) was 3.54 and the pKd (DFNB31_1, Q9P202) was 5.43. The pKd (GRID2IP_2, A4D2P6) was 4.17, the pKd (SHANK1, Q9Y566) was 3.76 and the pKd (DFNB31_2, Q9P202) was 3.71. For the same binder, the pKd (NHERF4_1, Q86UT5-2) was “below the threshold”, the pKd (MAGI1_1, Q96QZ7) was 3.59 and the pKd (LNX1_1, Q8TBB1) was 3.99. The pKd (SNTG2, Q9NY99) was 5.1, the pKd (SIPA1L2, Q9P2F8) was “below the threshold” and the pKd (LDB3, O75112) was “below the threshold”. The pKd (PTPN13_1, Q12923) was “below the threshold”, the pKd (GRIP1_4, Q9Y3R0) was “below the threshold” and the pKd (MPP2, Q14168) was “below the threshold”. It also gave a pKd (DLG4_1, P78352) of 4.44, a pKd (SCRIB_3, Q14160) of 5 and a pKd (PDZD7_3, Q9H5P4) of 5.51. For the same binder, the pKd (LNX2_2, Q8N448) was “below the threshold”.

In the case of ADEMICITTL [CACNA1D, Q01668], the pKd (GIPC2, Q8TF65) is reported as “below the threshold”, the pKd (Inadl_9, Q8NI35) is reported as “below the threshold” and the pKd (PARD3B_1, Q8TEW8) is reported as 4.84. The pKd (CARD11, Q9BXL7) was “below the threshold”, the pKd (GRASP, Q7Z6J2) was 5.41 and the pKd (NHERF2_2, Q15599) was 4.63. For the same binder, the pKd (MAGI2_6, Q86UL8) was 4.85, the pKd (IL16_1, Q14005) was “below the threshold” and the pKd (DFNB31_1, Q9P202) was 3.63. For the same binder, the pKd (GRID2IP_2, A4D2P6) was 4.94, the pKd (SHANK1, Q9Y566) was 5.28 and the pKd (DFNB31_2, Q9P202) was “below the threshold”. The pKd (NHERF4_1, Q86UT5-2) was 4.52, the pKd (MAGI1_1, Q96QZ7) was 3.51 and the pKd (LNX1_1, Q8TBB1) was 4.48. For the same binder, the pKd (SNTG2, Q9NY99) was 4.47, the pKd (SIPA1L2, Q9P2F8) was “below the threshold” and the pKd (LDB3, O75112) was “below the threshold”. The pKd (PTPN13_1, Q12923) was “below the threshold”, the pKd (GRIP1_4, Q9Y3R0) was “below the threshold” and the pKd (MPP2, Q14168) was “below the threshold”. The pKd (DLG4_1, P78352) was “below the threshold”, the pKd (SCRIB_3, Q14160) was 4.88 and the pKd (PDZD7_3, Q9H5P4) was 5.57. The pKd (LNX2_2, Q8N448) was 3.93.

For MLPANYVEAI [NEB, P20929], the pKd (GIPC2, Q8TF65) was “below the threshold”, the pKd (Inadl_9, Q8NI35) was “below the threshold” and the pKd (PARD3B_1, Q8TEW8) was “below the threshold”. For the same binder, the pKd (CARD11, Q9BXL7) was “below the threshold”, the pKd (GRASP, Q7Z6J2) was “below the threshold” and the pKd (NHERF2_2, Q15599) was “below the threshold”. The pKd (MAGI2_6, Q86UL8) was “below the threshold”, the pKd (IL16_1, Q14005) was “below the threshold” and the pKd (DFNB31_1, Q9P202) was “below the threshold”. For the same binder, the pKd (GRID2IP_2, A4D2P6) was “below the threshold”, the pKd (SHANK1, Q9Y566) was “below the threshold” and the pKd (DFNB31_2, Q9P202) was “below the threshold”. The pKd (NHERF4_1, Q86UT5-2) was “below the threshold”, the pKd (MAGI1_1, Q96QZ7) was “below the threshold” and the pKd (LNX1_1, Q8TBB1) was “below the threshold”. The pKd (SNTG2, Q9NY99) was “below the threshold”, the pKd (SIPA1L2, Q9P2F8) was “below the threshold” and the pKd (LDB3, O75112) was “below the threshold”. For the same binder, the pKd (PTPN13_1, Q12923) was “below the threshold”, the pKd (GRIP1_4, Q9Y3R0) was “below the threshold” and the pKd (MPP2, Q14168) was “below the threshold”. The pKd (DLG4_1, P78352) was “below the threshold”, the pKd (SCRIB_3, Q14160) was “below the threshold” and the pKd (PDZD7_3, Q9H5P4) was 3.52. For the same binder, the pKd (LNX2_2, Q8N448) was “below the threshold”.

PGKKPEDSRV [SLCO2B1, O94956] was tested, and the pKd (GIPC2, Q8TF65) was “below the threshold”, the pKd (Inadl_9, Q8NI35) was “below the threshold” and the pKd (PARD3B_1, Q8TEW8) was “below the threshold”. For the same binder, the pKd (CARD11, Q9BXL7) was “below the threshold”, the pKd (GRASP, Q7Z6J2) was “below the threshold” and the pKd (NHERF2_2, Q15599) was 3.47. The pKd (MAGI2_6, Q86UL8) was “below the threshold”, the pKd (IL16_1, Q14005) was 3.84 and the pKd (DFNB31_1, Q9P202) was 3.67. The pKd (GRID2IP_2, A4D2P6) was “below the threshold”, the pKd (SHANK1, Q9Y566) was “below the threshold” and the pKd (DFNB31_2, Q9P202) was “below the threshold”. For the same binder, the pKd (NHERF4_1, Q86UT5-2) was “below the threshold”, the pKd (MAGI1_1, Q96QZ7) was “below the threshold” and the pKd (LNX1_1, Q8TBB1) was “below the threshold”. The pKd (SNTG2, Q9NY99) was 3.83, the pKd (SIPA1L2, Q9P2F8) was “below the threshold” and the pKd (LDB3, O75112) was “below the threshold”. For the same binder, the pKd (PTPN13_1, Q12923) was “below the threshold”, the pKd (GRIP1_4, Q9Y3R0) was “below the threshold” and the pKd (MPP2, Q14168) was “below the threshold”. The pKd (DLG4_1, P78352) was 3.83, the pKd (SCRIB_3, Q14160) was “below the threshold” and the pKd (PDZD7_3, Q9H5P4) was “below the threshold”. The pKd (LNX2_2, Q8N448) was “below the threshold”.
